Reference: the supplement of paper PMC9170038

Test system: MS2 coat protein
Experiment: apparent KD of MS2 coat protein; designed switch direction (-1 OFF switch, 1 ON switch): -1; higher = weaker reporter binding
Outline: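 Stalled E. coli RNA polymerase transcribed designed RNA switches on Illumina chips, which were then titrated with SNAP-549-labelled MS2 coat protein, doubling from 0.7 or 1.5 nM to 3 µM. Steps lasted from 0.8–1.5 h at the lowest concentration to 10–20 min at the highest. The apparent KD is each design's median over clusters of curve-fitted normalised fluorescence.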

[1] = Eterna round: R95, input ligand: microRNA oligo, concentration not stated
[2] = Eterna round: R95, input ligand: FMN 200 uM
[3] = Eterna round: R95, input ligand: none
[4] = input ligand: microRNA oligo, concentration not stated

Sequence | apparent KD of MS2 coat protein (input ligand: FMN 200 uM) [nM] | apparent KD of MS2 coat protein (input ligand: none) [nM] | apparent KD of MS2 coat protein [1] [nM] | apparent KD of MS2 coat protein [2] [nM] | apparent KD of MS2 coat protein [3] [nM] | apparent KD of MS2 coat protein [4] [nM]
GAUCUACAUGAGGAUCACCCAUGUAAGGAUAUCUACAUUGAAGCCUCGGCUUCAAUGUAGAGAAGGUACAAUUA [E1/10-B2] (Eterna round: R97, puzzle: Exclusion 1) | 31.5 | 32.4 | – | – | – | –
GAUCUACAUGAGGAUCACCCAUGUAAGGAUAUUGAGUACUCGAAUGGAGAGCAAGGAUCAAGAAGGUGCAAUAU [Eternabot (L1) Solution 79] (Eterna round: R97, puzzle: Exclusion 1) | 18.8 | 23.1 | – | – | – | –
GAUGUUCUGGUCAGGAUAUGCAUCCGUCGGCCGGAGCAGAAGGGACAUGAGGAUCACCCAUGUGCGGGUACAAA [Onvegeor] (puzzle: Brourd's mod of Exclusion 4) | – | – | 38.4 | – | – | –
GAUUAACAUGAGGAUCACCCAUGUGAGGAUAUGAACUUGCCCACUUACCAGAUAAAGUUUAGAAGGCGCAUUCU [1986#35] (Eterna round: R97, puzzle: Exclusion 1) | 47.3 | 30.4 | – | – | – | –
GAUUAGACUAAGGAUAUUACGAGCUCUGUGCCGUGAGAAGGUAGCACAUGAGGAUCACCCAUGUGACCAUCAUG [Eternabot (L2) Solution 81] (Eterna round: R97, puzzle: Exclusion 6) | 180 | 58.6 | – | – | – | –
GAUUAUGCGAGCUUUAGGGACAUGAGGAUCACCCAUGUUCGUCUUAUUAGUCUAGGUACACUGACAUACCUAAAUCU [JMF 67] (puzzle: Sensor v3, turn-off variant 1) | – | – | 33.1 | 22.7 | 23.6 | –
GCAAGCUUUUGCUCGGCUUACAUGAGGAUCACCCAUGUGGGCCCGGGCCCGGGCCCGCCGGGCCCGGGCCCGGGCCC [-58.5, -80.7, A 10%] (Eterna round: R97, puzzle: Sensor, turn-off variant 1) | 24.4 | 25.4 | – | – | – | –
GCAAGCUUUUGCUCGUCUUACAUGAGGAUCACCCAUGUCGGGUGAUUGCUUCGUGCCCGGGCCCGCCGGGCCCGGGC [-41.5, -70.8 kcal, A 12%] (Eterna round: R97, puzzle: Sensor, turn-off variant 1) | 76.9 | 97.8 | – | – | – | –
GCACGAAGUGUAGGAUAUCUGUGCGAUUAGCUCAGAGAAGGACACAUGAGGAUCACCCAUGUGUUCCAAUACCCAAAUACGUGC [Eli exng1 - 061] (Eterna round: R96, puzzle: Exclusion NG 1) | 11 | 11.3 | – | – | – | 7.69
GCACGACAUCAGGAUAUGACUAGCUGCGGCUAGUCAGAAGGGAUGACAUGAGGAUCACCCAUGUGAUCACGUGC [E6/2-B3] (Eterna round: R97, puzzle: Exclusion 6) | 114 | 85.3 | – | – | – | –
GCACGGAGUGUAGGAUAUCUGUGCGAUUAGCUCAGAGAAGGACACAUGAGGAUCACCCAUGUGUUCCACGGAAACGAACCGUGC [Eli exng1 - 052] (Eterna round: R96, puzzle: Exclusion NG 1) | 11.8 | 13.4 | – | – | – | 10.2
GCACGGAUGGUAGGAUAUCUGUGCGAUUAGCUCAGAGAAGGACCACAUGAGGAUCACCCAUGUACCUCAAUUAGCUUUCCGUGC [Eli exng1 - 020] (Eterna round: R96, puzzle: Exclusion NG 1) | 40.7 | 15.2 | – | – | – | 11
GCACGGUUGGUAGGAUAUCCUUGCGAUUAGCAAGGAGAAGGACCACAUGAGGAUCACCCAUGUACCUCAAUAAUCCUUCCGUGC [Eli exng1 - 027] (Eterna round: R96, puzzle: Exclusion NG 1) | 12.8 | 14.7 | – | – | – | 12.1
GCACUGACAGGAUAUACAUGAGGAUCACCCAUGUGACCCUUAAAGUACUCGCGUACAAGUAGAAGGGUCUGUGC [Omei Ex3 Model Bachelor's Dilema v30] (Eterna round: R97, puzzle: Exclusion 3) | 398 | 66.7 | – | – | – | –
GCAGCAACUCUAAUCAAUCAAACAUGAGGAUCACCCAUGUCUCAGGAUAUGGUCUGGAUUACAGGCCAGAAGGGAGAAAGCUGC [Eli exng3 - 045] (Eterna round: R96, puzzle: Exclusion NG 3) | 14.3 | 16.1 | – | – | – | 11.1
GCAGCAUAGAUAACAGUCUGAUACAUGAGGAUCACCCAUGUACAGGAUAUGGUCUGGAUUACAGGCCAGAAGGGUACAAGCUGC [Eli exng3 - 014] (Eterna round: R96, puzzle: Exclusion NG 3) | 10.9 | 12.7 | – | – | – | 9.69
GCAGCUAACACAGAUAUGUGGACAUGAGGAUCACCCAUGUCACAGGAUAUGGACUGGAUUACAGUCCAGAAGGGUGAAUGCUGC [Zipper Style 5] (Eterna round: R96, puzzle: Exclusion NG 3) | 8.25 | 14.2 | – | – | – | 10.8
GCAGGAUAAGUCAGGAUAUACCUAUGGAUACAUAGGUAGAAGGGACAUGAGGAUCACCCAUGUGCCUCGCCUGC [Fiskers BMX 4 - 72] (puzzle: Brourd's mod of Exclusion 4) | – | – | 12.4 | – | – | –
GCAGGAUAAGUUAGGAUAUACCUAUGGAUACAUAGGUAGAAGGGACAUGAGGAUCACCCAUGUGACUCACCUGC [Fiskers BMX 4 - 63] (puzzle: Brourd's mod of Exclusion 4) | – | – | 18.4 | 33.5 | 22.4 | –
GCAUCCAGUGUGAGGAUAUACCUCUGGAUACAUAGGUAGAAGGCACAUGAGGAUCACCCAUGUCCUAAGGAUGC [Fiskers BMX 4 - 29] (puzzle: Brourd's mod of Exclusion 4) | – | – | 47.5 | 104 | 75.5 | –
GCAUGCGACUGAGGAUAUGUAGUGACCUCAGUCGAGACAUGAGGAUCACCCAUGUACAGCACGUGACAGAAGGCAGCACAUGAU [Eternabot solution 14] (Eterna round: R96, puzzle: Exclusion NG 2) | 63.2 | 53.7 | – | – | – | 38.5
GCAUGGCGAGGAUAUACAUGAGGAUCACCCAUGUGAGAAUAAUAAGUGAGGAAGAAAAGUAGAAGGCGCUGUGG [Mat - Exclusion 3 - Mod of Salish D64] (puzzle: Exclusion 3) | – | – | 70.1 | 250 | 97.8 | –
GCAUGGGCCGUCAGGAUAUAGGCGCCGUGAAGGUAUUAGAAGGGACAUGAGGAUCACCCAUGUAUGAGAAAAGA [Edtioresor] (puzzle: Brourd's mod of Exclusion 4) | – | – | 33.7 | – | – | –
GCAUGUUGGUAGGAUAUGCAGCGGAAACCGCUAGUAGAAGGAUUGACAUGAGGAUCACCCAUGUGAACCGAAGG [Arcelace] (Eterna round: R97, puzzle: Exclusion 6) | 186 | 40.4 | – | – | – | –
GCCAGAGCAGGAUAUUCAAUAAUUCACAUGAGGAUCACCCAUGUCGAGCGAAAGCUCGAGGGAGAAGGGCUCUGGC [Fiskers Ex 5 - 6] (puzzle: Exclusion 5) | – | – | 34.8 | 14.3 | 39.4 | –
GCCGAAAAAGUGAGGAUAUACCUAUGGAUACAUAGGUAGAAGGCACAUGAGGAUCACCCAUGUGUCCUAACGGC [Eli bmx4 4.29] (Eterna round: R97, puzzle: Brourd's mod of Exclusion 4) | 18 | 15.2 | – | – | – | –
GCCGAAAGCGUAGGAUAUUGAAUAAAGCGGAAACGCAAGACAUGAGGAUCACCCAUGUGUCCGGACGAGAAGGGCGAAAGCGGC [AK ExNG2-V2-2] (Eterna round: R96, puzzle: Exclusion NG 2) | 33.6 | 35.3 | – | – | – | 24.1
GCCGGAUAAGUGAGGAUAUACCUAUGGAUACAUAGGUAGAAGGCACAUGAGGAUCACCCAUGUUCCUCUCCGGC [JL-BMX4-4.17 Eli mod] (Eterna round: R97, puzzle: Brourd's mod of Exclusion 4) | 406 | 30.3 | – | – | – | –
GCCUCACUUGAGGAUCACCCAAGUCAGGAUAUCUACAGGCCGGCCAUACCAGCCUGCAAGAGAAGGGACUCUAA [Isriqu] (Eterna round: R97, puzzle: Exclusion 1) | 245 | 32.3 | – | – | – | –
GCCUGUGAAGGAUAUACAUGAGGAUCACCCAUGUGGCGGAUAUACCCGCCGAGACCGUGUAGAAGGUCAUAGUA [Xezauser] (puzzle: Exclusion 3) | – | – | 36.1 | – | – | –
